Results reported in patent US20090291081A1 (AbbVie / Abbott, published 2009).

Assays:
[1] = target: T1, human IL-1α (human, UniProt P01583 113-271); assay: Table 62 IC50; RBA presumed
T1 construct: also called IL-1alpha; hIL-1α
T1 sequence (looked up): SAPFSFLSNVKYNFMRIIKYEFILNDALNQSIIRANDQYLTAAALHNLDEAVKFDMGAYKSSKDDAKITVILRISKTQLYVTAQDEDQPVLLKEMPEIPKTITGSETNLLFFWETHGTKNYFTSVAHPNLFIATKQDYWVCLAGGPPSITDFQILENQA

[2] = target: T1, human IL-1α; assay: cell-based or functional assay
[3] = target: T2, human IL-1β (human, UniProt P01584 117-269); assay: IC50 column of Table 63; receptor binding assay presumed
T2 construct: antigen of the ABT2 dAbs; also called hIL-1β; IL-1 beta

Binder | IC50 [1] [nM] | ND50 [2] [nM] | IC50 [3] [nM]
ABT1-158 (other, VK dAb) VL: DIQMTQSPSSLSASVGDRVTITCRASRSIGRGLNWYQQKPGKAPKLLIGGWSGLQSGVPSRFSGSGSGTDFTLTISSLQPEDFATYYCAQASPLPTFGQGTKVEIKR | 2 | < 100 | –
ABT1-162 (other, VK dAb) VL: DIQMTQSPSSLSASVGGRVTITCRASHYIRNRLHWYQQKPGKAPKLLIARGSALQSGVPSRFSGSGSGTDFTLTISSLQPEDFATYYCVQDGYLPPTFGQGTKVEIKR | 1000 | 6.2 | –
ABT1-161 (other, VK dAb) VL: DIQMTQSPSSLSASVGDRVTITCRASHAITGSLRWYQQKPGKAPKLLISGGSVLQSGVPSRFSGSGSGTDFTLTISSLQPEDFATYYCAQWLGGPMTFGQGTKVEIKR | > 1000 | 8 | –
ABT1-165 (other, VK dAb) VL: DIQMTQSPSSLSASVGDRVTITCRASSSIRAGLAWYQQKPGKAPKLLIGPESGLQSGVPSRFSGSGSGTDFTLTISSLQPEDFATYYCGQGIDGPATFGQGTKVEIKR | > 1000 | 1000 | –
ABT2-63 (other, VK dAb) VL: DIQMTQSPSSLSASVGDRVTITCRASQSIRVFLSWYQQKPGKAPKLLIYNASYLQSGVPSRFSGSGSGTDFTLTISSLQPEDFATYYCQQRALYPTTFGQGTKVEIKR | – | – | 1000
ABT1-141-78 (other, VK dAb) VL: DIQMTQSPSSLSASVGDRVTITCRANQWIQKQLAWYQQKPGKAPKLLIYSSSHLQSGVPSRFSGSGYGTDFTLTISSLQPQDFATYYCQQHLRVPMTFGQGTKVEIKR | 3 | 0.7 | –
ABT1-141-80 (other, VK dAb) VL: DIQMTQSPSSLSASVGDRVTITCRANQWIQKQLAWYQQKPGKAPKLLIYSSSHLQSGVPSRFSGSGYGTDFTLTISSLQPEDFATYYCQQHLRVPMTFGQGTKVEIKR | 3 | 1.7 | –
ABT1-141-79 (other, VK dAb) VL: DIQMTQSPSSLSASVGDRVTITCRANQWIQKQLAWYQQKPGKAPKLLIFSSSHLQSGVPSRFSGSGSGTDFTLTISSLQPEDFATYYCQQHLRVPMTFGQGTKVEIKR | 3 | 2.4 | –
ABT2-65-1 (other, VH dAb) VH: EVQLLESGGGLVQPGGSLRLSCAASGFTFEDYQMGWVRQAPGKGLEWVSSISAMGNRTYYADSVKGRFTISRDDSKNTLYLQMKSLRAEDTAVYYCAQNLVRTQSKMWMFDYWGQGTLVTVSS | – | – | 100
ABT2-65-22 (other, VH dAb) VH: EVQLLESGGGLVQPGGSLRLSCAASGFTFLGYPMGWVRQAPGKGLEWVSSISAMGNRTYYADSVKGRFTISPDDSKNTLYLQMNSLRAEDTAVYYCAKNLVRTQSKMWMFDYWGQGTLVTVSS | – | – | 100
ABT2-65-29 (other, VH dAb) VH: EVQLLESGGGLVQPGGSLRLSCAASGFTFEDYQMGWVRQAPGKGLEWVSSISAMGNRTYYADSVKGRFTISRDDSKNTLYLQMNSLRAEDTAVYYCAQNLVLVRVGWWMFDYWGQGTLVTVSS | – | – | 20
ABT2-65-37 (other, VH dAb) VH: EVQLLESGGGLVQPGGSLRLSCAASGFTFADYQMGWVRQAPGKGLEWVSSISAMGNRTYYADSVKGRFTISRDDSKNTLYLQMNSLRAEDTAVYYCAQNLVRTQSKMWMFDYWGQGTLVTVSS | – | – | 100
ABT2-65-31 (other, VH dAb) VH: EVQLLESGGGLVQPGGSLRLSCAASGFTFEDYQMGWVRQAPGKGLEWVSSISAMGNRTYYADSVKGRFTISRDDSKNTLYLQMNSLRAEDTAVYYCAQNLVKIMRLKWMFDYWGQGTLVTVSS | – | – | 3
ABT2-65-18 (other, VH dAb) VH: EVQLLESGGGLVQPGGSLRLSCAASGFTFGDYQMGWVRQAPGKGLEWVSSISAMGNRTYYADSVKGRFTISRDDSKNTLYLQMNSLRAEDTAVYYCAENLVQWRIGAWMFDYWGQGTLVTVSS | – | – | 20
ABT2-65-9 (other, VH dAb) VH: EVQLLESGGGLVHPGGSLRLSCAASGFTFRWYPMGWVRQAPGKGLEWVSSISAMGNRTYYADSVKGRFTISRDDSKNTLYLQMNSLRAEDTAVYYCAENLVRTQSKMWMFDYWGQGTLVTVSS | – | – | 100
ABT2-65-26 (other, VH dAb) VH: EVQLLESGGGLVQPGGSLRLSCAASGFTFEDYQMGWVRQAPGKGLEWVSSISAMGNRTYYADSVKGRFTISRDDSKNTLYLQMNSLRAEDTAVYYCAQNLVLVRSGYWMFDYWGQGTLVTVSS | – | – | 20

Binder | IC50 [1] [nM] | ND50 [2] [nM] | IC50 [3] [nM]
ABT2-65-15 (other, VH dAb) VH: EVQLLESGGGLVQPGGSLRLSCAASGFTFGIYQMGWVRQAPGKGLEWVSSISAMGNRTYYADSVKGRFTISRDDSKNTLYLQMNSLRAEDTAVYYCAQNLVRTQSKMWMFDYWGQGTLVTVSS | – | – | 100
ABT2-65-13 (other, VH dAb) VH: EVQLLESGGGLVQPGGSLRLSCAASGFTFREYQMGWVRQAPGKGLEWVSSISAMGNRTYYADSVKGRFTISRDDSKNTLYLQMNSLRAEDTAVYYCANNLVRTQSKMWMFDYWGQGTLVTVSS | – | – | 20
ABT2-65-32 (other, VH dAb) VH: EVQLLESGGGLVQPGGSLRLSCAASGFTFEDYQMGWVRQAPGKGLEWVSSISAMGNRTYYADSVKGRFTISRDDSKNTLYLQMNSLRAEDTAVYYCAQNLVAVSRGRWMFDYWGQGTLVTVSS | – | – | 4
ABT2-65-24 (other, VH dAb) VH: EVQLLESGGGLVQPGGSLRLSCAASGFTFAAYQMGWVRQAPGKGLEWVSSISAMGNRTYYADSVKGRFTISRDDSKNTLYLQMNSLRAEDTAVYYCAQNLVRTQSKMWMFDYWGQGTLVTVSS | – | – | 50
ABT2-65-14 (other, VH dAb) VH: EVQLLESGGGLVQPGGSLRLSCAAPGFTFPYYPMGWVRQAPGKGLEWVSSISAMGNRTYYADSVKGRFTISRDDSKNTLYLQMNSLRAEDTAVYYCAKNLVRTQSKMWMFDYWGQGTLVTVSS | – | – | 1000
ABT2-65-12 (other, VH dAb) VH: EVQLLESGGGLVQPGGSLRLSCAASGFTFREYWMGWVRQAPGKGLEWVSSISAMGNRTYYADSVKGRFTISRDDSKNTLYLQMNSLRAEDTAVYYCANNLVRTQSKMWMFDYWGQGTLVTVSS | – | – | 20
ABT2-65-27 (other, VH dAb) VH: EVQLLESGGGLVQPGGSLRLSCAASGFTFEDYQMGWVRQAPGKGLEWVSSISAMGNRTYYADSVKGRFTISRDDSKNTLYLQMNSLRAEDTAVYYCAENLVRLWKGRWMFDYWGQGTLVTVSS | – | – | 3.5
ABT2-65-25 (other, VH dAb) VH: EVQLLESGGGLVQPGGSLRLSCAASGFTFEDYQMGWVRQAPGKGLEWVSSISAMGNRTYYADSVKGRFTISRDDSKNTLYLQMNSLRAEDTAVYYCAQNLVRYRSYYWMFDYWGQGTLVTVLS | – | – | 4
ABT2-65-2 (other, VH dAb) VH: EVQLLESGGGLVQPGGSLRLSCAASGFTFSTYNMGWVRQAPGKGLEWVSSISAMGNRTYYADSVKGRFTISRDDSKNTLYLQMNSLRAEDTAVYYCANNLVRTQSKMWMFDYWGQGTLVTVSS | – | – | 20
ABT2-65-23 (other, VH dAb) VH: EVQLLESGGGLVQPGESLRLSCAASGFTFKVYPMGWVRQAPGKGLEWVSSISAMGNRTYYADSVKGRFTISRDDSKNTLYLQMNSLRAEDTAVYYCAKNLVRTQSKMWMFDYWGQGTLVTVSS | – | – | 800
ABT2-65-11 (other, VH dAb) VH: EVQLLESGGGLVQPGGSLRLSCAASGFTFRAYPMGWVRQAPGKGLEWVSSISAMGNRTYYADSVKGRFTISRDDSKNTLYLQMNSLRAEDTAVYYCANNLVRTQSKMWMFDYWGQGTLVTVSS | – | – | 50
ABT2-65-28 (other, VH dAb) VH: EVQLLESGGGLVQPGGSLRLSCAASGFTFEDYQMGWVRQAPGKGLEWVSSISAMGNRTYYADSVKGRFTISRDDSKNTLYLQMNSLRAEDTAVYYCAQNLVQFRRSQWMFDYWGQGTLVTVSS | – | – | 5
ABT2-65-16 (other, VH dAb) VH: EVQLLESGGGLVQPGGSLRLSCAASGFTFEDYQMGWVRQAPGKGLEWVSSISAMGNRTYYADSVKGRFTISRDDSKNTLYLQMNSLRAEDTAVYYCAENLVKWRSAEWMFDYWGQGTLVTVSS | – | – | 200
ABT2-65-33 (other, VH dAb) VH: EVQLLESGGGLVQPGGSLRLSCAASGFTFEDYQMGWVRQAPGKGLEWVSSISAMGNRTYYADSVKGRFTISRDDSKNTLYLQMNSLRAEDTAVYYCAQNLVRYMKSQWMFDYWGQGTLVTVSS | – | – | 20
ABT2-65-30 (other, VH dAb) VH: EVRLLESGGGLVQPGGSLRLSCAASGFTFEDYQMGWVRQAPGKGLEWVSSISAMGNRTYYADSVKGRFTISRDDSKNTLYLQMNSLRAEDTAVYYCAQNLVRLNRRDWMFDYWGQGTLVTVSS | – | – | 20
ABT1-148 (other, VK dAb) VL: DIQMTQSPSSLSASVGDRVTITCRASQSISSYLNWYQQKPGKAPKLLIGALSGLQSGVPSRFSGSGSGTDFTLTISSLQPEDFATYYCMQWYRHPSTFGQGTKVEIKR | 400 | 100 | –
